From publication PMC9442473, “Centriole growth is limited by the Cdk/Cyclin-dependent phosphorylation of Ana2/STIL” (The Journal of Cell Biology, 2022)

B1: Ana2-mNG (natural protein, Drosophila melanogaster, UniProt Q9XZ31 1-420, looked up)
chain: MFVPETEDMLPRLAPRPSAAVPMGHTNEIIGPTVPEVSILFGQPPQDPQMQPQQPNHAHQESSPRAAPTFASWKKQMLPRVNFSPILATELGPRTAPSSNSPCSSKEYQVMPRDRNYASDAQQTTNHMNCNAGGYNAEPKQQAYQSRRLSSSSNADVLTICAGTQTDPFNPSPPRKSLPQVVYSDIDVSNLANKSDLAALVSLVESVRHEQQQLRNLCEMILEQQQRAKPEAISKASSTTGTQCDILTTNQAGRRLSPIMQDYIAEEEEPLPPPQARVIPQFPSPRPHPPIAQSTGYRANTPQAKRIPQLAKPNTEKSMVMNELALKYLRQPVDELMKDMRLGASPKSPNPEPLRPIDNIGHAQSPNDISNASYKYLKKYRLLPEEQLEPVCPQSPMAATAPSPHIQLDLENIRNQPKLL
notes: Ana2 (fly homologue of STIL), Drosophila melanogaster; mNG with a short linker knocked in at the C-terminus of the endogenous locus; The protein appeared overexpressed about 2-4X against the untagged one; also called Ana2/STIL; WT Ana2-mNG; source: CRISPR/Cas9 knock-in at the endogenous locus, in the cytoplasm of living Drosophila syncytial embryos; not shown: mNeonGreen (mNG), C-terminal, kept
B2: mNG-Ana2 (natural protein, Drosophila melanogaster, UniProt Q9XZ31 1-420, looked up)
chain: B1 chain
notes: Ana2 (fly homologue of STIL), Drosophila melanogaster; mNG with a short linker knocked in at the N-terminus of the endogenous locus; also called Ana2/STIL; source: CRISPR/Cas9 knock-in at the endogenous locus, in the cytoplasm of living Drosophila syncytial embryos; not shown: mNeonGreen (mNG), N-terminal, kept

Target: the molecule itself
Assay: fluorescence correlation spectroscopy (FCS), photon-count rate per molecule (CPM); point FCS in the cytoplasm of living syncytial embryos at the beginning of nuclear cycle 12, 25.0-26.0°C; CPM compared with monomeric (mNG) and dimeric (dNG) NeonGreen controls

| Protein | stoichiometry N |
| --- | --- |
| B1 | ~2 |
| B2 | ~2 |
